The record followed here is patent US20240392020A1 (JIANGSU HENGRUI PHARMACEUTICALS, published 2024).

In assay [1] the target is T1, hTSLP (human, UniProt Q969D9 29-159).
T1 construct: bought
The experiment in a line: ELISA. (In general: An ELISA detects its analyte on a solid surface through an enzyme-linked reagent.)
Procedure: (§1) For an antibody targeting a soluble protein, the binding activity of the antibody against the soluble protein was detected by ELISA. […] After the blocking was completed, the blocking solution was discarded; and the plate was washed 3 times with a PBST buffer (pH 7.4, PBS containing 0.1% tween-20). 100 μL of the antibody solution diluted in a gradient was added to each well, and the mixture was incubated at 37° C. for 1 h. After the incubation was completed, the plate was washed 3 times with PBST.

Assay [2] addresses T2, hIL-5 (human, UniProt P05113 20-134).
T2 construct: bought
The assay is described as follows: ELISA.
Procedure: as §1

B1: HJ-3 (bispecific antibody, human IgG1, kappa, L234A L235A)
heavy 1: not shown
light 1: DIQMTQSPSSVSASVGDRVTITCRASQDIANYLSWYQQKPGKSPKLLIYGTSNLEVGVPSRFSGSRSGTDFTLTISSLQPEDFATYYCLQDKEFPRTFGGGTKVEIKGGGGSSGAPRFLTRPLAFVVSVGKDATLSSQIVGNPTPQVSWEKDKQPVTAGARFRLAQDGDLYRLKILDLQLSDSGQYVSRARNAIGEAFACLGLQVDAEA
heavy 2: EVQLVQSGAEVKKPGSSVKVSCKASGYTFSNYLIEWVRQAPGQGLEWIGVIDPGVGDTNYNENFKGRATLTADKSTSTAYIELSSLRSEDTAVYYCAREDNTGTAFDYWGQGTTVTVSSASTKGPSVFPLAPSSKSTSGGTAALGCLVKDYFPEPVTVSWNSGALTSGVHTFPAVLQSSGLYSLSSVVTVPSSSLGTQTYICNVNHKPSNTKVDKKVEPKSCDKTHTCPPCPAPEAAGGPSVFLFPPKPKDTLMISRTPEVTCVVVDVSHEDPEVKFNWYVDGVEVHNAKTKPREEQYNSTYRVVSVLTVLHQDWLNGKEYKCKVSNKALPAPIEKTISKAKGQPREPQVCTLPPSREEMTKNQVSLSCAVKGFYPSDIAVEWESNGQPENNYKTTPPVLDSDGSFFLVSKLTVDKSRWQQGNVFSCSVMHEALHNHYTQKSLSLSPGKDYKDDDDK
light 2: SIVMTQTPLSLSVTPGQPASISCKASQSVSSDVTWYLQKPGQSPQLLIYYVSEHYTGVPDRFSGSGYGTDFTLKISRVEAEDVGVYYCQQHHRFPLTFGQGTKLEIKRTVAAPSVFIFPPSDEQLKSGTASVVCLLNNFYPREAKVQWKVDNALQSGNSQESVTEQDSKDSTYSLSSTLTLSKADYEKHKVYACEVTHQGLSSPVTKSFNRGEC
With B1, the EC50 – broadly, the midpoint of the concentration-response curve – amounted to 3.23 nM in assay [1] and 17.4 nM in assay [2].

B2: HJ-8 (bispecific antibody, human IgG1, kappa, L234A L235A)
heavy 1: not shown
light 1: DIQMTQSPSSVSASVGDRVTITCRASQDIANYLSWYQQKPGKSPKLLIYGTSNLEVGVPSRFSGSRSGTDFTLTISSLQPEDFATYYCLQDKEFPRTFGGGTKVEIKRTVASSGAPRFLTRPKASVVSVGKDATLSSQIVGNPFPQVSWEKDKQPVTAGVRFRLAQDGDLYRLKILDLQLSDSGQYVSRARNAHGEAFACLGLQVDAEA
heavy 2: EVQLVQSGAEVKKPGSSVKVSCKASGYTFSNYLIEWVRQAPGQGLEWIGVIDPGVGDTNYNENFKGRATLTADKSTSTAYIELSSLRSEDTAVYYCAREDNTGTAFDYWGQGTTVTVSSASTKGPSVFPLAPSSKSTSGGTAALGCLVKDYFPEPVTVSWNSGALTSGVHTFPAVLQSSGLYSLSSVVTVPSSSLGTQTYICNVNHKPSNTKVDKKVEPKSCDKTHTCPPCPAPEAAGGPSVFLFPPKPKDTLMISRTPEVTCVVVDVSHEDPEVKFNWYVDGVEVHNAKTKPREEQYNSTYRVVSVLTVLHQDWLNGKEYKCKVSNKALPAPIEKTISKAKGQPREPQVCTLPPSREEMTKNQVSLSCAVKGFYPSDIAVEWESNGQPENNYKTTPPVLDSDGSFFLVSKLTVDKSRWQQGNVFSCSVMHEALHNHYTQKSLSLSPGK
light 2: SIVMTQTPLSLSVTPGQPASISCKASQSVSSDVTWYLQKPGQSPQLLIYYVSEHYTGVPDRFSGSGYGTDFTLKISRVEAEDVGVYYCQQHHRFPLTFGQGTKLEIKRTVAAPSVFIFPPSDEQLKSGTASVVCLLNNFYPREAKVQWKVDNALQSGNSQESVTEQDSKDSTYSLSSTLTLSKADYEKHKVYACEVTHQGLSSPVTKSFNRGEC
In the case of B2, the EC50 is 3.33 nM in assay [1] and 18.7 nM in assay [2].

B3: HJ-5 (bispecific antibody, human IgG1, kappa, L234A L235A)
heavy 1: not shown
light 1: DIQMTQSPSSVSASVGDRVTITCRASQDIANYLSWYQQKPGKSPKLLIYGTSNLEVGVPSRFSGSRSGTDFTLTISSLQPEDFATYYCLQDKEFPRTFGGGTKVEIKGGGGSSGAPRFLTRPKASVVSVGKDATLSSQIVGNPFPQVSWEKDKQPVTAGVRFRLAQDGDLYRLKILDLQLSDSGQYVSRARNAHGEAFACLGLQVDAEA
heavy 2: EVQLVQSGAEVKKPGSSVKVSCKASGYTFSNYLIEWVRQAPGQGLEWIGVIDPGVGDTNYNENFKGRATLTADKSTSTAYIELSSLRSEDTAVYYCAREDNTGTAFDYWGQGTTVTVSSASTKGPSVFPLAPSSKSTSGGTAALGCLVKDYFPEPVTVSWNSGALTSGVHTFPAVLQSSGLYSLSSVVTVPSSSLGTQTYICNVNHKPSNTKVDKKVEPKSCDKTHTCPPCPAPEAAGGPSVFLFPPKPKDTLMISRTPEVTCVVVDVSHEDPEVKFNWYVDGVEVHNAKTKPREEQYNSTYRVVSVLTVLHQDWLNGKEYKCKVSNKALPAPIEKTISKAKGQPREPQVCTLPPSREEMTKNQVSLSCAVKGFYPSDIAVEWESNGQPENNYKTTPPVLDSDGSFFLVSKLTVDKSRWQQGNVFSCSVMHEALHNHYTQKSLSLSPGK
light 2: SIVMTQTPLSLSVTPGQPASISCKASQSVSSDVTWYLQKPGQSPQLLIYYVSEHYTGVPDRFSGSGYGTDFTLKISRVEAEDVGVYYCQQHHRFPLTFGQGTKLEIKRTVAAPSVFIFPPSDEQLKSGTASVVCLLNNFYPREAKVQWKVDNALQSGNSQESVTEQDSKDSTYSLSSTLTLSKADYEKHKVYACEVTHQGLSSPVTKSFNRGEC
For the molecule B3, the EC50 in assay [1] came to 2.64 nM; in assay [2], 16 nM.

B4: HJ-6 (bispecific antibody, human IgG1, kappa, L234A L235A)
heavy 1: not shown
light 1: DIQMTQSPSSVSASVGDRVTITCRASQDIANYLSWYQQKPGKSPKLLIYGTSNLEVGVPSRFSGSRSGTDFTLTISSLQPEDFATYYCLQDKEFPRTFGGGTKVEIKGGGGSSGAPRFLTCPKASVVSVGKDATLSSQIVGNPFPQVSWEKDKQPVTAGVRFRLAQDGDLYRLKILDLQLSDSGQYVSRARNAHGEAFACLGLQVDAEA
heavy 2: EVQLVQSGAEVKKPGSSVKVSCKASGYTFSNYLIEWVRQAPGQGLEWIGVIDPGVGDTNYNENFKGRATLTADKSTSTAYIELSSLRSEDTAVYYCAREDNTGTAFDYWGQGTTVTVSSASTKGPSVFPLAPSSKSTSGGTAALGCLVKDYFPEPVTVSWNSGALTSGVHTFPAVLQSSGLYSLSSVVTVPSSSLGTQTYICNVNHKPSNTKVDKKVEPKSCDKTHTCPPCPAPEAAGGPSVFLFPPKPKDTLMISRTPEVTCVVVDVSHEDPEVKFNWYVDGVEVHNAKTKPREEQYNSTYRVVSVLTVLHQDWLNGKEYKCKVSNKALPAPIEKTISKAKGQPREPQVCTLPPSREEMTKNQVSLSCAVKGFYPSDIAVEWESNGQPENNYKTTPPVLDSDGSFFLVSKLTVDKSRWQQGNVFSCSVMHEALHNHYTQKSLSLSPGK
light 2: SIVMTQTPLSLSVTPGQPASISCKASQSVSSDVTWYLQKPGQSPQLLIYYVSEHYTGVPDRFSGSGYGTDFTLKISRVEAEDVGVYYCQQHHRFPLTFGQGTKLEIKRTVAAPSVFIFPPSDEQLKSGTASVVCLLNNFYPREAKVQWKVDNALQSGNSQESVTEQDSKDSTYSLSSTLTLSKADYEKHKVYACEVTHQGLSSPVTKSFNRGEC
Regarding B4, the EC50 in assay [1] was 2.88 nM; in assay [2] it was 37 nM.

B5: HJ-7 (bispecific antibody, human IgG1, kappa, L234A L235A)
heavy 1: not shown
light 1: DIQMTQSPSSVSASVGDRVTITCRASQDIANYLSWYQQKPGKSPKLLIYGTSNLEVGVPSRFSGSRSGTDFTLTISSLQPEDFATYYCLQDKEFPRTFGGGTKVEIKGGGGSSGAPRFLTRPKASVVSVGKDATLSCQIVGNPFPQVSWEKDKQPVTAGVRFRLAQDGDLYRLKILDLQLSDSGQYVCRARNAHGEAFACLGLQVDAEA
heavy 2: EVQLVQSGAEVKKPGSSVKVSCKASGYTFSNYLIEWVRQAPGQGLEWIGVIDPGVGDTNYNENFKGRATLTADKSTSTAYIELSSLRSEDTAVYYCAREDNTGTAFDYWGQGTTVTVSSASTKGPSVFPLAPSSKSTSGGTAALGCLVKDYFPEPVTVSWNSGALTSGVHTFPAVLQSSGLYSLSSVVTVPSSSLGTQTYICNVNHKPSNTKVDKKVEPKSCDKTHTCPPCPAPEAAGGPSVFLFPPKPKDTLMISRTPEVTCVVVDVSHEDPEVKFNWYVDGVEVHNAKTKPREEQYNSTYRVVSVLTVLHQDWLNGKEYKCKVSNKALPAPIEKTISKAKGQPREPQVCTLPPSREEMTKNQVSLSCAVKGFYPSDIAVEWESNGQPENNYKTTPPVLDSDGSFFLVSKLTVDKSRWQQGNVFSCSVMHEALHNHYTQKSLSLSPGK
light 2: SIVMTQTPLSLSVTPGQPASISCKASQSVSSDVTWYLQKPGQSPQLLIYYVSEHYTGVPDRFSGSGYGTDFTLKISRVEAEDVGVYYCQQHHRFPLTFGQGTKLEIKRTVAAPSVFIFPPSDEQLKSGTASVVCLLNNFYPREAKVQWKVDNALQSGNSQESVTEQDSKDSTYSLSSTLTLSKADYEKHKVYACEVTHQGLSSPVTKSFNRGEC
Regarding B5, the EC50 in assay [1] came out at 2.18 nM; in assay [2], 17.7 nM.

B6: HJ-9 (bispecific antibody, human IgG1, kappa, L234A L235A)
heavy 1: not shown
light 1: DIQMTQSPSSVSASVGDRVTITCRASQDIANYLSWYQQKPGKSPKLLIYGTSNLEVGVPSRFSGSRSGTDFTLTISSLQPEDFATYYCLQDKEFPRTFGGGTKVEIKRTVASSGAPRFLTCPKASVVSVGKDATLSSQIVGNPFPQVSWEKDKQPVTAGVRFRLAQDGDLYRLKILDLQLSDSGQYVSRARNAHGEAFACLGLQVDAEA
heavy 2: EVQLVQSGAEVKKPGSSVKVSCKASGYTFSNYLIEWVRQAPGQGLEWIGVIDPGVGDTNYNENFKGRATLTADKSTSTAYIELSSLRSEDTAVYYCAREDNTGTAFDYWGQGTTVTVSSASTKGPSVFPLAPSSKSTSGGTAALGCLVKDYFPEPVTVSWNSGALTSGVHTFPAVLQSSGLYSLSSVVTVPSSSLGTQTYICNVNHKPSNTKVDKKVEPKSCDKTHTCPPCPAPEAAGGPSVFLFPPKPKDTLMISRTPEVTCVVVDVSHEDPEVKFNWYVDGVEVHNAKTKPREEQYNSTYRVVSVLTVLHQDWLNGKEYKCKVSNKALPAPIEKTISKAKGQPREPQVCTLPPSREEMTKNQVSLSCAVKGFYPSDIAVEWESNGQPENNYKTTPPVLDSDGSFFLVSKLTVDKSRWQQGNVFSCSVMHEALHNHYTQKSLSLSPGK
light 2: SIVMTQTPLSLSVTPGQPASISCKASQSVSSDVTWYLQKPGQSPQLLIYYVSEHYTGVPDRFSGSGYGTDFTLKISRVEAEDVGVYYCQQHHRFPLTFGQGTKLEIKRTVAAPSVFIFPPSDEQLKSGTASVVCLLNNFYPREAKVQWKVDNALQSGNSQESVTEQDSKDSTYSLSSTLTLSKADYEKHKVYACEVTHQGLSSPVTKSFNRGEC
In the case of B6, the EC50 was 3.18 nM in assay [1] and 10.9 nM in assay [2].
